One assay concerns the target T1, Human NPR-B (Homo sapiens, UniProt P20594).
T1 construct: purchased R&D system
T1 sequence (P20594 23-458 limits assumed): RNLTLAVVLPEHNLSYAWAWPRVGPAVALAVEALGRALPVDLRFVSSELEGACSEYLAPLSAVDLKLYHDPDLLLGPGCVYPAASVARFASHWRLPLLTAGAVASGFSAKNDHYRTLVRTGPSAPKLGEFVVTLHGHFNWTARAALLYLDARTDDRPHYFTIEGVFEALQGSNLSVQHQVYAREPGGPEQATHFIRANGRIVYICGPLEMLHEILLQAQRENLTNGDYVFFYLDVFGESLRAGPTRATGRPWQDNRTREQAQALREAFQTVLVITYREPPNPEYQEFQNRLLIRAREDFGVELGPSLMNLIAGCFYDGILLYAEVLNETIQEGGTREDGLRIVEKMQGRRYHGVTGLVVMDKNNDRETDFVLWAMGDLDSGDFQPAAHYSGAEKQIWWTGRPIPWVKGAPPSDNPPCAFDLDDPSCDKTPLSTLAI
Nature of the assay: Biacore SPR kinetic affinity binding to immobilized NPR-B. On the procedure:
The biological function of these purified protein was assayed for their stimulation of production of cGMP, using NPR-B receptor positive cell line, NIH/3T3 and NPR-B negative cell line HEK293 cells. The determination of cGMP was assay by ELISA using commercial CNP as standard curves. […] Surface preparation. NBR-B was immobilized at different levels in three flow cells via standard amine coupling, leaving Fc 1 unmodified to serve as a reference. All surface plasmon resonance (SPR) analysis was performed on a BIAcore 3000 system using series CM5 sensor chips. Data processing and analysis were performed using BIAevaluation software. All sensorgrams were double referenced by subtracting the response on a reference flow cell and a blank sample. Human NPR-B (R&D system) was covalently attached to a CM5 chip via amine coupling. A surface density of 6600 RU was used for measurements with natriuretic peptides Sequential injections of CNP (0.5-8 nM) were performed at a flow rate of […] (300 s for each), followed by a dissociation time of 900 s. […] Kinetic parameters were calculated assuming a simple 1:1 (Langmuir) binding. […] All SPR analysis was performed on a BIAcore 3000 system using series CM5 sensor chips. Data processing and analysis were performed using BIAevaluation software. All sensorgrams were double referenced by subtracting the response on a reference flow cell and a blank sample. Human NPR-B (R&D system) was covalently attached to a CM5 chip via amine coupling. A surface density of 3100 RU was used for measurements with natriuretic peptides Sequential injections of AMI263 (FC4-CNP) (0.125-2 nM) were performed at a flow rate of […] (300 s for each), followed by a dissociation time of 900 s. […] Kinetic parameters were calculated assuming a simple 1:1 (Langmuir) binding. […] All SPR analysis was performed on a BIAcore 3000 system using series CM5 sensor chips. Data processing and analysis were performed using BIAevaluation software. All sensorgrams were double referenced by subtracting the response on a reference flow cell and a blank sample. Human NPR-B (R&D system) was covalently attached to a CM5 chip via amine coupling. […] Kinetic parameters were calculated assuming a simple 1:1 (Langmuir) binding. […] All SPR analysis was performed on a BIAcore 3000 system using series CM5 sensor chips. Data processing and analysis were performed using BIAevaluation software. All sensorgrams were double referenced by subtracting the response on a reference flow cell and a blank sample. Human NPR-B (R&D system) was covalently attached to a CM5 chip via amine coupling. A surface density of 3100 RU was used for measurements with natriuretic peptides Sequential injections of AMI263 (FC4-CNP) (0.5-300 nM) were performed at a flow rate of […] (300 s for each), followed by a dissociation time of 900 s. […] Kinetic parameters were calculated assuming a simple 1:1 (Langmuir) binding. […] All SPR analysis was performed on a BIAcore 3000 system using series CM5 sensor chips. Data processing and analysis were performed using BIAevaluation software. All sensorgrams were double referenced by subtracting the response on a reference flow cell and a blank sample. Human NPR-B (R&D system) was covalently attached to a CM5 chip via amine coupling.
(In general: SPR reads the build-up and loss of mass on a sensor chip optically.)

The test system of the next assay is HEK293 cells. Nature of the assay: CNP-Fc ELISA of supernatant of AAV-transduced HEK293 cells. The format is cell-based, Human. The conditions noted are these: CNP-Fc in HEK293 supernatant 5 days after transduction with 100,000 MOI of AAV2 N54 vector. On the procedure: C-type natriuretic peptide (CNP) has two isoforms, CNP-22 and CNP-53. Example 2 illustrates that CNP-36 fused with Fe increased the half-life of the CNP and also facilitated in purification and ELISA detection when compared to native (unfused) CNP. Transduction and CNP-Fc expression experiments were performed with three AAV vectors (AMI061, AMI087 and AMI0488). FIG. 1A is the pictorial depiction of the three vectors. FIGS. 1B-F illustrate additional vectors that can encode the CNP or the CNP fusion protein. Enzyme-linked immunoassay (ELISA) was developed for quantifying CNP-Fc fusion proteins in cell culture supernatants. The ELISA assay was used to quantify CNP-Fc expressed in HEK293 cells, human chondrocytes (HCH) cells, and human skeletal muscle cells (hSkMC) upon transduction with one of the three AAV constructs described herein.
Buffer and substrate. Coating buffer: 3.7 g sodium bicarbonate, 0.64 g sodium carbonate in 1 L of Milli Q water, pH 9.6. Stored at RT; Blocking buffer: Commercial Casein blocking buffer in PBS+ added 0.1% Tween20. Stored at 4° C.; Standard diluent: same as blocking buffer; Wash buffer: 1×PBS with 0.1% tween 20 (30 days expiry from date of manufacture); Coating Antibody (Ab): Human CNP Antibody (monoclonal), coating concentration was 2 μg/mL; Detection Ab: Goat pAb anti-human Fc. Diluted up to 1:20,000 final dilution in well. Stored at 4° C.; HRP: Streptavidin-HRP stock of 1 mg/mL, diluted up to 1:10,000. Stored at 4° C.; Substrate: TMB. Stored at 4° C.; and Stop solution: 2 N HCl. Stored at ambient temperature.
• 1. Coat 96-well plate with 2 μg/mL anti-CNP antibody final concentration per well in the coating buffer with a 50 μL volume and cover the plate with sealing cover. Put the plate at 4° C. overnight. • 2. Next day, remove the plate, wash thrice with wash buffer and tap the plate on the paper towel to remove excess solution. • 3. Add 300 μL of blocking buffer to each well using multichannel pipette. […] Add 50 μL stop solution and read plate at 450 nm with 600 as reference within 15 min. […]
In general terms: ELISA stands for enzyme-linked immunosorbent assay.

Assay [1] concerns NIH3T3 cells (cGMP secreted). The experiment in a line: EC50 for CNP-Fc constructs, cGMP ELISA of NIH3T3 supernatant. The format is cell-based. To be noted: NIH3T3, 30 minutes, 1.8 mM IBMX, cGMP secreted by the cells; FIG. 25B. As to the method:
EC50 for CNP-Fc described herein were measured by ELISA. 2.5E+05 NIH3T3 cells/well were plated. […] After 30 minutes, supernatant was collected for cGMP determined via ELISA. FIG. 25A illustrates a standard curve of cGMP.

In assay [2] the target is T2, NPR-B on NIH/3T3 cells (NPR-B receptor positive cell line) (UniProt Q6VVW5 17-1047, limits assumed).
T2 sequence (looked up): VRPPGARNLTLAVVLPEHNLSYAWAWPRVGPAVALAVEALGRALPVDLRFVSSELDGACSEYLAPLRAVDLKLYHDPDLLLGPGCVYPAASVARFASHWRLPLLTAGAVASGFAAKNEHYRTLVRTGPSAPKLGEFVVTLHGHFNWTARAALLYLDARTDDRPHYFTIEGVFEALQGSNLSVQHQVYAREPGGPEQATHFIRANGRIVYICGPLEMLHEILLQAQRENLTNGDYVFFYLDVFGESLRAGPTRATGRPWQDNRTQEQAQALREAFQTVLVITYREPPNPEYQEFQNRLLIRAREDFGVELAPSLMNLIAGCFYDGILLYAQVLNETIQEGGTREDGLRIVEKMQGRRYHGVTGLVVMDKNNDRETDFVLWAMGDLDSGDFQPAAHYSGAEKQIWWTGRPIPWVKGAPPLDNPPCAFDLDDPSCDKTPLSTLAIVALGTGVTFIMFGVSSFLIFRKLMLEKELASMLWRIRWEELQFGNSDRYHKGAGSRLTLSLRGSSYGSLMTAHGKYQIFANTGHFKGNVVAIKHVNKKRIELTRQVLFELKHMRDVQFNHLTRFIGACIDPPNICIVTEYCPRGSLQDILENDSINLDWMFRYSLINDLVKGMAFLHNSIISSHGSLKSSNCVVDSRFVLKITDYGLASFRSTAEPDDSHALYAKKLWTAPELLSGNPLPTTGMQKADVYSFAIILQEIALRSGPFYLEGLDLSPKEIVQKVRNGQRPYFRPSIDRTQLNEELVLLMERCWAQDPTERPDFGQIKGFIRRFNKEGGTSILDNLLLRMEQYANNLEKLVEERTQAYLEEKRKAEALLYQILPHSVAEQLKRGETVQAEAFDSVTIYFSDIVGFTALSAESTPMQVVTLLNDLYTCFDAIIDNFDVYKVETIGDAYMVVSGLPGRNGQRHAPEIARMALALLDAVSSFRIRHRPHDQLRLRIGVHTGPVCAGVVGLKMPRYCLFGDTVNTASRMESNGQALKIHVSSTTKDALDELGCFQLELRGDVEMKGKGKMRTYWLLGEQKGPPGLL
The experiment in a line: cell-based or functional assay.

For “AMI087: purified CNP-Fc fusion protein CNP36-(G4S)4-Fc1, SEQ ID NO: 132”, in the assay with Human NPR-B ((FIG. 7C-7I)), the ka is recorded as 3.65E3 and the kd is reported as 1.53E-3. Further, in the assay with Human NPR-B (Table 32 summary of affinity), the ka was 3.65E+03 and the kd came out at 1.53E−03. Moreover, in the assay on HEK293 cells, the “Concentration” value amounted to 33 µg/mL.
In the case of “AMI269: fusion protein Fc4-(G4S)4-CNP22, SEQ ID NO: 136”, in assay [1], the “EC50 values (rank order)” value is reported as “CNP-22 ≡Fc4-CNP36>Aflibercept-Fc4-CNP36>Fc1-CNP36>>Fc4-CNP22”.
For SLRRSSCFGGRMDRIGAQSGLGCNSFRY (peptide, UniProt P01160 124-151, looked up) [ANP], in assay [2], the “EC50 (cGMP production, drawn table, row ANP)” value came to 112 nM and the “EC50 (read off the curve), cGMP production” value was approximately 100 nM.
